Source: US20230078601A1 (CLEVELAND CLINIC FOUNDATION, published 2023)

Key:
p20-26 = target: T1, p20-26; test: SPOT peptide array on cellulose membrane, 4D12G1 at 1.0 µg/ml, chemiluminescence
T1 construct: SPOT array peptide on cellulose membrane; residues 20-26 of AMHR2-ED; also called AMHR2-ED 20-26 7-mer peptide; KTLGELL
T1 peptide: KTLGELL
Procedure: (§1) The AMHR2-ED binding sequence of the 4D12G1 mAb and the critical AMHR2-ED residues for such binding were confirmed by SPOT peptide arrays. Peptides spanning the AMHR2-ED 9-40 immunoreactive region and ranging from 4-16-mers in length were synthesized >90% pure on cellulose membranes (JPT Peptide Technologies, Berlin, Germany), treated overnight with blocking buffer (Thermo Fisher), followed by treatment with the 4D12G1 mAb at 1.0 μg/ml for 3 hours at room temperature, followed by three washes with PBS containing 0.01% Tween-20 (Bio-Rad). The membranes were then treated with a 1:10,000 dilution of an HRP-conjugated rabbit anti-mouse IgG (MilliporeSigma) followed by three washes with PBS containing 0.01% Tween-20 (Bio-Rad). Bound antibody was detected using the HyGLO chemiluminescence system (Thomas Scientific).
(§2) An overlapping series of 16-mer peptides spanning the entire 132 amino acid sequence of human AMHR2-ED (FIG. 3A) with moving single amino acid shifts were plated for direct ELISA testing using the 4D12G1 mAb as primary antibody. […] To determine amino acids recognized by the 4D12G1 mAb, an overlapping series of peptides spanning the immunoreactive sequence comprising AMHR2-ED 13-30 were synthesized with alanine substitutions at each N-terminal residue or with glycine substitutions for any native N-terminal alanine. These peptides were used in competitive ELISAs to determine which residues inhibit binding of the 4D12G1 mAb with solid phase rhAMHR2-ED. […] To determine the minimal AMHR2-ED sequence involved in the binding of the 4D12G1 mAb, SPOT peptide arrays were generated spanning the immunoreactive region of AMHR2-ED. Peptides ranging from 4-16-mers in length were immobilized on cellulose membranes and treated with the 4D12G1 mAb. Bound antibody was detected by chemiluminescence.

p20-35 = target: T2, p20-35; test: as above
T2 construct: SPOT array peptide on cellulose membrane; also called AMHR2-ED 20-35 16-mer peptide
T2 peptide: KTLGELLDTGTELPRA
Procedure: as §1, §2

p22-37 = target: T3, p22-37; test: as above
T3 construct: SPOT array peptide on cellulose membrane; also called AMHR2-ED 22-37 16-mer peptide
T3 peptide: LGELLDTGTELPRAIR
Procedure: as §1, §2

p21-36 = target: T4, p21-36; test: as above
T4 construct: SPOT array peptide on cellulose membrane; also called AMHR2-ED 21-36 16-mer peptide
T4 peptide: TLGELLDTGTELPRAI
Procedure: as §1, §2

[1] = target: T5, mouse AMHR2 (in lysate of a normal young C57BL/6 female mouse ovary) (mouse, UniProt Q8K592 16-568, limits assumed); test: Western blot of mouse ovary lysate
T5 construct: Denatured ovary lysate on a Western blot; also called mouse AMHR2-ED
T5 sequence (looked up): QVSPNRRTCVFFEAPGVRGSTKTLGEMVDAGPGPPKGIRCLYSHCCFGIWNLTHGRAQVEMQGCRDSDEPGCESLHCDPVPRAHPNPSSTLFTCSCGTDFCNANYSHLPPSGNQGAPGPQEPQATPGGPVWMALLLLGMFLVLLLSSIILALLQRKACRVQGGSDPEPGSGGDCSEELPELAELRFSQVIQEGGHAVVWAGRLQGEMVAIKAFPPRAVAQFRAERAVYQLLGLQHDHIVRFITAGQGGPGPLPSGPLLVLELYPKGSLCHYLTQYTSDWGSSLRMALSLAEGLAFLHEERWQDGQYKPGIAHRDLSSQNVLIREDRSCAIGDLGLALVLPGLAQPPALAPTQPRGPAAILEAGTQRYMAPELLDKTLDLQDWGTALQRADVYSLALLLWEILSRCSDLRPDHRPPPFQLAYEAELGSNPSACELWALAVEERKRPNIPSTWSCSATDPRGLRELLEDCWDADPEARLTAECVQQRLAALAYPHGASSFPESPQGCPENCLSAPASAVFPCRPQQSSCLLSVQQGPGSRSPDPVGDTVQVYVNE
Procedure: The suspension was centrifuged to remove debris, the lysates were washed in PBS, and 25 μg of protein from each lysate was loaded into each lane of denaturing SDS-PAGE gels (Bio-Rad). Gels were transferred onto polyvinylidene difluoride (PVDF) membranes (Bio-Rad) and treated with the 4D12G1 mAb at 0.001 μg/ml as primary antibody. In FIG. 2D, a commercially available AMHR2-ED mAb (#sc-377413; Santa Cruz Biotechnology, Dallas, Tex.) at 1.0 μg/ml was used instead of the 4D12G1 mAb as the primary antibody for detecting AMHR2-ED. Western blots of lysates were used to detect capase-3-mediated cleavage of poly (ADP-ribose) polymerase-1 (PARP-1) in AMHR2-OVCAR8 cells treated with increasing concentrations of 4D12G1 mAb (1.0-10 μg/ml) by using a primary rabbit antibody for detection of the intact 116 kDa PARP-1 and its 89 kDa cleaved variant associated with apoptosis (Cell Signaling Technology, Danvers, Mass.). Secondary detection antibodies included treatment with a 1:10,000 dilution of an HRP-conjugated rabbit anti-mouse IgG (MilliporeSigma) or a 1:5,000 dilution of an HRP-conjugated goat anti-rabbit antibody (MilliporeSigma). […]

Measured: binding result

B1: 4D12G1 mAb (antibody, IgG1, V domains shown)
VH: DVKLVESGGGLVKLGGSLKLSCAASGFTFSRYFMSWVRQTPEKRLELVAAINSDGGRTYYPDTVKGRFTISRDNAKNTLYLQMSSLKSEDTALYYCTRHIYSYYEDYFDYWGQGTTLTVSS
VL: DVVMTQTPLSLPVSLGDQASISCRSSQSLVHSNGNTYLHWYLQKPGQSPKLLIYKVSKRFSGVPDRFSGSGSGTDFTLKISRVEAEDLGVYFCSQSTHVYTFGGGTKLEIK
notes: also called 4D12G1 IgG1 mAb
binds: all assays above
